The results in this text go back to patent US20180364253A1 (published 2018).

Bridge positions count the residues as written; N and C are the ends. Square brackets hold non-standard residues; d marks the D form. Primed or numbered codes have the meaning given here. Ends that are not written are not given here. * marks the point of attachment. Biotin = O=C1N[C@H]2[C@H](CS[C@H]2CCCCC(=O)*)N1; Lys(N3) = [N-]=[N+]=NCCCC[C@H](N)C(=O)O; PEG3′ = PEGylated amino acid linker; Biotin′ = not defined here; Pra = C#CC[C@H](N)C(=O)O

For experiment [1], the target named is T1, full-length His-tagged IL-17F protein (ab167911, Abcam) (human, UniProt Q96PD4 31-163).
T1 construct: Bought protein, called 'full-length'; also called human IL-17F protein; recombinant human IL-17F protein; not shown: His tag of the bought protein
T1 chain: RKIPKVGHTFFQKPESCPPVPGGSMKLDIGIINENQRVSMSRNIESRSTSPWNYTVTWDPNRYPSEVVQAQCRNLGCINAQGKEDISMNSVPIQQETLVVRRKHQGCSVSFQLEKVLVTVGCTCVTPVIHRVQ
The experiment can be described thus: fluorescence polarization in solution: IL-17F titrated against the 5-FITC-tagged macrocycle. A general note: In fluorescence polarisation assays a small probe gives low polarisation when free and higher when bound to something large.

In experiment [2] the target is T1, full-length His-tagged IL-17F protein …. Briefly: point ELISA: ligand on NeutrAvidin plate, 100 nM His-tagged IL-17F against His-tagged IL-17A as reference. (In an ELISA, binding on a coated surface is turned into a signal by an enzyme label.)
Experimental: Point ELISA (IL-17F vs. IL-17A selectivity assay). […] The plate was aspirated and then washed with TBS (5×) and Wash Buffer (0.05% (v/v) Tween-20 in PBS, 1×). Full-length His-tagged IL-17F (ab167911, Abcam) and IL-17A (ab166882, Abcam) proteins were prepared at 100 nM and 10 nM in Wash Buffer and incubated in the designated microwells for 90 min at room temperature. Microwells were aspirated and subsequently washed with Wash Buffer (10×). To detect the bound IL-17F and IL-17A proteins, Alkaline Phosphatase (AP)-conjugated Anti-6X His tag® antibody [HIS-1] (ab49746, Abcam) was prepared at 1:10,000 dilution and added to the microwells for 1 h at room temperature. […] AttoPhos® AP Fluorescent Substrate System (S1000, Promega) was employed to develop the microwells.
(§1) For these assays, the full-length His-tagged IL-17F and IL-17A proteins were captured using the macrocyclic peptide ligands immobilized on a NeutrAvidin-coated plate.
The target is the same in experiment [3]. Briefly: sandwich ELISA: biotinylated ligand on NeutrAvidin plate, His-tagged IL-17F titrated, anti-His-AP detection.
The target is the same in experiment [4]. Briefly: method not named there (same number as the ELISA EC50).
The target in experiment [5] is T2, Plasmodium falciparum Histidine Rich Protein-2 (Pf.HRP-2) (Plasmodium falciparum).
T2 chain: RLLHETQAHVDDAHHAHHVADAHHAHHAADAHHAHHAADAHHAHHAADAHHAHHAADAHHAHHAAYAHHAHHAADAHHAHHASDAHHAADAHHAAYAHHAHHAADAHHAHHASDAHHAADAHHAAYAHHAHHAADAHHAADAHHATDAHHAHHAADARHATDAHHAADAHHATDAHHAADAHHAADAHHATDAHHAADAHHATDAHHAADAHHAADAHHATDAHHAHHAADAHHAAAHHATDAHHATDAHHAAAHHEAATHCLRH
The experiment can be described thus: method and form of the target not stated.

Experiment [6] deals with T2, Plasmodium falciparum Histidine Rich …. The experiment can be described thus: comparison of EC50 values.
In experiment [7] the target is T3, His6-PEG3-FFQKPESSPPVPGGS (human, not fully specified (N-terminus); printed as His6-PEG3-FFQKPESSPPVPGGS).
T3 construct: Chemically synthesized
T3 peptide: FFQKPESSPPVPGGS
The experiment can be described thus: point ELISA with His-tagged epitope peptides scrambled at the N- or C-terminus.

Experiment [8] has as its target T4, His6-PEG3-SQFEKFPSPPVPGGS (not fully specified (N-terminus); printed as His6-PEG3-SQFEKFPSPPVPGGS).
T4 construct: Chemically synthesized
T4 peptide: SQFEKFPSPPVPGGS
Briefly: point ELISA: ligand on NeutrAvidin plate, His-tagged epitope peptide, anti-His-AP detection.
Experimental: (§2) Assay to determine orientation of macrocycle binding to IL-17F Epitope1. […] The plate was aspirated and then washed with TBS (5×) and Wash Buffer (0.05% (v/v) Tween-20 in PBS, 1×). Chemically synthesized His-tagged IL-17F epitopes were prepared at 2 μM in Wash Buffer and incubated in the designated microwells for 90 min at room temperature. Wash Buffer without epitope was added as a control. Microwells were aspirated and subsequently washed with Wash Buffer (10×). To detect the bound IL-17F epitopes, Alkaline Phosphatase (AP)-conjugated Anti-6X His tag® antibody [HIS-1] (ab49746, Abcam) was prepared at 1:10,000 dilution and added to the microwells for 1 h at room temperature. […] AttoPhos® AP Fluorescent Substrate System (S1000, Promega) was employed to develop the microwells. […] Data are shown after subtraction of the no-epitope background.

Experiment [9] addresses T5, His6-PEG3-FFQKPESSPVSPGPG (not fully specified (N-terminus); printed as His6-PEG3-FFQKPESSPVSPGPG).
T5 construct: Chemically synthesized
T5 peptide: FFQKPESSPVSPGPG
The experiment can be described thus: point ELISA: ligand on NeutrAvidin plate, 2 µM His-tagged epitope peptide, anti-His-AP detection.
Experimental: as §2

In experiment [10] the target is T1, full-length His-tagged IL-17F protein …. The experiment can be described thus: surface-immobilized macrocycle contacted with IL-17F, IL-17A or no protein.
Experiment [11] has the same target. Briefly: point ELISA: ligand on NeutrAvidin plate, His-tagged IL-17F against His-tagged IL-17A as reference.
Experimental: Point ELISA (IL-17F vs. IL-17A selectivity assay). […] The plate was aspirated and then washed with TBS (5×) and Wash Buffer (0.05% (v/v) Tween-20 in PBS, 1×). Full-length His-tagged IL-17F (ab167911, Abcam) and IL-17A (ab166882, Abcam) proteins were prepared at 100 and 10 nM in Wash Buffer and incubated in the designated microwells for 90 min at room temperature. Microwells were aspirated and subsequently washed with Wash Buffer (10×). To detect the bound IL-17F and IL-17A proteins, Alkaline Phosphatase (AP)-conjugated Anti-6X His tag® antibody [HIS-1] (ab49746, Abcam) was prepared at 1:10,000 dilution and added to the microwells for 1 h at room temperature. […] AttoPhos® AP Fluorescent Substrate System (S1000, Promega) was employed to develop the microwells.
as §1
Experiment [12] concerns the target T3, His6-PEG3-FFQKPESSPPVPGGS
Briefly: point ELISA: ligand on NeutrAvidin plate, 2 µM His-tagged epitope peptide, anti-His-AP detection.
Experimental: as §2

In experiment [13] the target is T1, full-length His-tagged IL-17F protein …. The experiment can be described thus: fluorescence polarization in solution.
For experiment [14] the target is unchanged. The experiment can be described thus: comparison of affinities for His-tagged IL-17F; reference the other biligands (PEG1, PEG2, PEG4, PEG5).
Experiment [15] has the same target. Briefly: comparison of affinities for His-tagged IL-17F.
Experiment [16] shares this target. Briefly: binding to His-tagged IL-17F human recombinant protein; method not named there (ELISA implied).
The target is the same in experiment [17]. The experiment can be described thus: point ELISA against recombinant human IL-17F and IL-17A.

B1: fluorescein 5-isothiocyanate (5-FITC)-tagged LF2 (peptide)
peptide: [Pra]RSYNK[Lys(N3)]
modifications: triazole N-C; numbers in words are those of the source; also: 5-FITC tag, position not given here
notes: Form of LF2 used in fluorescence polarization; also called LF2 (5-FITC-tagged)
The term Kd denotes the concentration at which binding is half-saturated. In [1], B1 yielded an equilibrium dissociation constant (Kd) of 28 nM.

B2: Biotin-PEG3-Cy(RSYNK) (SEQ ID NO:28) (peptide)
peptide: RSYNK
modifications: not fully specified; cyclised by a triazole between flanking N-terminal Pra (L-propargylglycine) and C-terminal Az4 (L-azidolysine); Biotin-PEG3 label
notes: also called LF2; PEG3-biotin-modified Cy(RSYNK)
The term EC50 denotes the concentration that produces a half-maximal response. A high value points to a less potent agent. B2: the “selectivity for IL-17F (against IL-17A)” value in [2] was 4 ratio. The same molecule gave an EC50 in experiment [3] of 15 nM. In experiment [4], binding was put at a Kd of 15 nM.

B3: Biotin-PEG3-Cy(KKGWP) (SEQ ID NO:23) (peptide)
peptide: KKGWP
modifications: not fully specified; cyclised by a triazole between flanking N-terminal Pra (L-propargylglycine) and C-terminal Az4 (L-azidolysine); N-terminal Biotin-PEG3 label
notes: also called PEG3-biotin-modified Cy(KKGWP)
Consider B3, for which the “selectivity for IL-17F (against IL-17A)” value in [2] worked out at 4 ratio. The same molecule had an EC50 in experiment [3] of 24 nM.

B4: cy(YKYYR)(SEQ ID NO:29)-linker-cy(GWNVDL) (SEQ ID NO:30) (peptide)
peptide 1: YKYYR
peptide 2: GWNVDL
modifications: not fully specified
notes: One covalent molecule; also called the resultant biligand
B4 yielded an EC50 in [5] of 0.54 nM. Besides, the “fold improvement over the better of the two ligand components” value in experiment [6] was determined as 100 fold.

B5: Cy(RRATS)(SEQ ID NO:9)-PEG3-biotin (peptide)
peptide: [Pra]RRATS[Lys(N3)]-{PEG3′-Biotin′}
modifications: triazole N-C
notes: also called LF1; PEG3-biotin-modified Cy(RRATS)
With B5, the binding result in experiment [7] is recorded as “binds”; in [8], “no binding (tested: 2 µM epitope)”; in experiment [9] it was “binds”. Also, in [3], the EC50 came to 66 nM. Further, the “selectivity for IL-17F (against IL-17A)” value in experiment [10] amounted to 10 ratio; in experiment [11], 2 ratio.

B6: Cy(RRAQS)(SEQ ID NO:10)-PEG3-biotin (peptide)
peptide: [Pra]RRAQS[Lys(N3)]-{PEG3′-Biotin′}
modifications: triazole N-C
notes: also called PEG3-biotin-modified Cy(RRAQS)
Take B6: the binding result in [8] is recorded as “no binding (tested: 2 µM epitope)”; in experiment [9] it was “binds”; in experiment [12] it was “binds”. The molecule also returned an EC50 in [3] of 52 nM. In addition, in experiment [11], the “selectivity for IL-17F (against IL-17A)” value is 2 ratio.

B7: fluorescein 5-isothiocyanate (5-FITC)-tagged LF1 (peptide)
peptide: [Pra]RRATS[Lys(N3)]
modifications: triazole N-C; numbers in words are those of the source; also: 5-FITC tag, position not given here
notes: Form of LF1 used in fluorescence polarization; also called LF1 (5-FITC-tagged)
The molecule B7 returned a Kd in experiment [1] of 50 nM.

B8: linked biligand of two Cy(YKYYR) (SEQ ID NO:29) PCCs with about a 1.5 nm long linker (peptide)
peptide: YKYYR
modifications: also: cyclic peptide (Cy), closure not given here, dimer: two macrocycles joined by a linker of about 1.5 nm
notes: also called the resultant linked biligand
For the molecule B8, the midpoint of the response in [5], the EC50, lay at 20.8 nM.

B9: Biotin-PEG3-Cy(RSYNK)(SEQ ID NO:28)-PEG3-Cy(RRATS) (SEQ ID NO:9) (peptide)
peptide 1: {Biotin-PEG3′}-[Pra]RSYNK
peptide 2: [Pra]RRATS[Lys(N3)]
modifications: not fully specified (C-terminus); also: triazole to a chain's N/C-terminus, triazole to a chain's N/C-terminus
notes: One covalent molecule: the two macrocycles are joined by a single PEGylated amino acid (PEG3); also called Bi-LF; Cy(RSYNK)-PEG3-Cy(RRATS)
Turning to B9, the Kd in experiment [13] is 0.252 nM; in [16], 0.246 nM. Besides, in [14], the “times stronger than the other biligands” value is at least 16 fold. Further, the “fold improvement in affinity relative to the individual PCC macrocyclic ligands” value in experiment [15] is above 100 fold. In [17], the “selectivity for IL-17F (against IL-17A)” value is 4 ratio.
Take YKYYR (also: cyclic, mode of cyclisation not given here, also called cyclic YKYYR) [Cy(YKYYR) (SEQ ID NO:29)]: the midpoint of the response in [5], the EC50, lay at 220 nM.
Same read-out and setting: the value for GWNVDL (also: cyclic peptide, closure not given here, also called cy(GWNVDL)) [cyclic PCC with variable sequence GWNVDL (SEQ ID NO:30)] was 50 nM.
